Results: patent US20180258152
Where two headings read alike, the source gives them in different places. Each block holds one binder with its values, some of them ahead of it. No end group written: not given here.

Columns and labels:
Settings in all cases: modification not given
[1] = biological target: T1, human GIP receptor (GIPR) (human), P48546; assay: competition, 125I-GIP(1-42)
T1 chain: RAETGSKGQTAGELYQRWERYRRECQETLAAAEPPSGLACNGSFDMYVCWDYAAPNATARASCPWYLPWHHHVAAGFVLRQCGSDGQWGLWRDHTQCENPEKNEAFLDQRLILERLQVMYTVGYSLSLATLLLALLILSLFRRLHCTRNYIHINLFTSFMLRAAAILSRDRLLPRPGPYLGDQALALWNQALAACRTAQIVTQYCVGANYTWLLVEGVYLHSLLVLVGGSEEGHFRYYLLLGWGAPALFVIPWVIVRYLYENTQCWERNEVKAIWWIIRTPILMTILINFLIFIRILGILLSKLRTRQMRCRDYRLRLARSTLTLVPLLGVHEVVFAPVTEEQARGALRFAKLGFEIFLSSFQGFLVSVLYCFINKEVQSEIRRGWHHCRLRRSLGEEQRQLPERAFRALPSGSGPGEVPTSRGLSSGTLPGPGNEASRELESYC

[2] = biological target: T1, human GIP receptor (GIPR) (human), …; assay: other, Schild cAMP
[3] = biological target: T1, human GIP receptor (GIPR) (human), …; assay: competition, 125I-hGIP
[4] = biological target: T1, human GIP receptor (GIPR) (human), …
[5] = biological target: T1, human GIP receptor (GIPR) (human), …; assay: competition
[6] = biological target: T1, human GIP receptor (GIPR) (human), …; assay: competition
[7] = biological target: T1, human GIP receptor (GIPR) (human), …; assay: competition
[8] = biological target: T1, human GIP receptor (GIPR) (human), …; assay: competition, 125I-GIP(1-30)NH2
[9] = biological target: T1, human GIP receptor (GIPR) (human), …; assay: competition, 125I-GIP(2-30)NH2
[10] = biological target: T1, human GIP receptor (GIPR) (human), …; assay: competition, 125I-GIP(3-30)NH2
[11] = biological target: T1, human GIP receptor (GIPR) (human), …

Binder: SDYSIAMDKIHQQDFVNWLLAQK (not fully specified (C-terminus)) [GIP(8-30)NH2]
Ki [1]: 79 nM

Binder: DYSIAMDKIHQQDFVNWLLAQK (not fully specified (C-terminus)) [GIP(9-30)NH2]
Ki [1]: 307 nM

Binder: TFISDYSIAMDKIHQQDFVNWLLAQK (not fully specified (C-terminus)) [GIP(5-30)NH2]
Ki [2]: 15.2 nM
Ki [1]: 5.9 nM

Binder: GTFISDYSIAMDKIHQQDFVNWLLAQK (not fully specified (C-terminus)) [GIP(4-30)NH2]
Ki [1]: 21.5 nM

Binder: EGTFISDYSIAMDKIHQQDFVNWLLAQK [GIP(3-30)NH2]
Ki [4]: 14.9 nM
IC50 [5]: 4.4 nM
IC50 [6]: 3.4 nM
Ki [6]: 2.3 nM
IC50 [7]: 0.76 nM

Binder: FISDYSIAMDKIHQQDFVNWLLAQK (not fully specified (C-terminus)) [GIP(6-30)NH2]
Ki [1]: 347 nM
IC50 [8]: 1060 nM
IC50 [9]: 340 nM
IC50 [10]: 370 nM

Binder: AEGTFISDYSIAMDKIHQQDFVNWLLAQK (not fully specified (C-terminus)) [GIP(2-30)NH2]
Ki [1]: 14.3 nM
IC50 [8]: 26 nM
IC50 [9]: 2.7 nM
IC50 [10]: 7.7 nM

Next, values leading:

Ki [2]: 7.9 nM
Binder: EGTFISDYSIAMEKIAQQDFVNWLLAQK [hGIP(3-30)D15E H18A]

Ki [2]: 37 nM
IC50 [3]: 7.8 nM
Binder: EGTFISDYSIAMDKIKQQDFVNWLLAQK [hGIP(3-30)H18K]

Ki [2]: 35 nM
Binder: EGTFISDYSIAMDKIAQQDFVNWLLAQK [hGIP(3-30)H18A]

Ki [2]: 15 nM
Binder: EGTFISDYSIAMDAIAQQDFVNWLLAQK [hGIP(3-30)K16A H18A]

Ki [11]: 15 nM
IC50 [6]: 16 nM
Binder: EGTFISDYSIAMDKIHQQDFVNWLLAQK [hGIP(3-30)]
